Results from patent US20180119166A1 (UNIVERSITY INDUSTRY FOUNDATION YONSEI UNIVERSITY, published 2018).

T1: YFP^N-Gle1 (Arabidopsis, UniProt Q0WPZ7 1-611)
T1 construct: BiFC construct expressed in N. benthamiana leaves by agroinfiltration; also called YFP^N-fusion protein of Arabidopsis Gle1; not shown: N-terminal fragment of YFP (YFP^N) for BiFC
T1 sequence: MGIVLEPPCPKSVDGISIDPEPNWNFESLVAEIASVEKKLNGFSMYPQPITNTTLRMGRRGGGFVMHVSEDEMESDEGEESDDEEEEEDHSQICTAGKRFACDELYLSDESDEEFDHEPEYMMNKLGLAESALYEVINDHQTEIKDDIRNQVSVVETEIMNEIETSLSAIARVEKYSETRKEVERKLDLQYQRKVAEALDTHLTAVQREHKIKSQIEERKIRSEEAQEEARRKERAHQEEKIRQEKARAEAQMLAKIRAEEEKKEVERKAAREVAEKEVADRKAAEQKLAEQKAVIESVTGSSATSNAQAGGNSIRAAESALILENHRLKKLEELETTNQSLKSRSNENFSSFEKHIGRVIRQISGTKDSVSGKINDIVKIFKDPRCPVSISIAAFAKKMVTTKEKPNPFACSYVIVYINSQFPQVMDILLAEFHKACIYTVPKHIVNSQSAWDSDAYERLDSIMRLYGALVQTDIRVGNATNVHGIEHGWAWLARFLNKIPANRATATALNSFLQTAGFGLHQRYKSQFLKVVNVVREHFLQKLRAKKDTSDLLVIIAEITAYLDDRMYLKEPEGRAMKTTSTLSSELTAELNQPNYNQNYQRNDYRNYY

T2: LOS4 (BiFC fusion protein, FIG. 8B) (Arabidopsis, UniProt Q93ZG7 1-496)
T2 construct: not shown: YFP fragment for BiFC
T2 sequence (looked up): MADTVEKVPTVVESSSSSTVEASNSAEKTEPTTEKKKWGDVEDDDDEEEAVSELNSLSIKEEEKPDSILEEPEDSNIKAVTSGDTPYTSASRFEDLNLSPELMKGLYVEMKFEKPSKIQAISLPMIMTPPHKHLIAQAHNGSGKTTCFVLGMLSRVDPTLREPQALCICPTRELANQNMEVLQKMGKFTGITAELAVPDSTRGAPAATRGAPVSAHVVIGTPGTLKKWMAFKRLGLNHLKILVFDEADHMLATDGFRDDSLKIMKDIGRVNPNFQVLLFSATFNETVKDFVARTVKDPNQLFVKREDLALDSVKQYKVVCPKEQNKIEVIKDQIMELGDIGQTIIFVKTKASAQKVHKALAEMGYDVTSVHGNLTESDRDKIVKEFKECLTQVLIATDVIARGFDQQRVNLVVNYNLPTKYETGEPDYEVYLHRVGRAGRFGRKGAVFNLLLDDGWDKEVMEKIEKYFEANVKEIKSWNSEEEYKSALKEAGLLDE

B1: maltose-binding protein (MBP)-fused Gle1 (MBP-Gle1) (other, not shown: large carriers)
chain: T1 sequence
B2: LOS4-YFP^C (other, Arabidopsis, UniProt Q93ZG7 1-496, looked up)
chain: T2 sequence (looked up)
notes: BiFC construct expressed in N. benthamiana leaves by agroinfiltration; also called YFP^C-fusion protein of LOS4; not shown: C-terminal fragment of YFP (YFP^C) for BiFC
B3: 6x-histidine-fused LOS4 (LOS4-His) (enzyme)
chain: MADTVEKVPTVVESSSSSTVEASNSAEKTEPTTEKKKWGDVEDDDDEEEAVSELNSLSIKEEEKPDSILEEPEDSNIKAVTSGDTPYTSASRFEDLNLSPELMKGLYVEMKFEKPSKIQAISLPMIMTPPHKHLIAQAHNGSGKTTCFVLGMLSRVDPTLREPQALCICPTRELANQNMEVLQKMGKFTGITAELAVPDSTRGAPAATRGAPVSAHVVIGTPGTLKKWMAFKRLGLNHLKILVFDEADHMLATDGFRDDSLKIMKDIGRVNPNFQVLLFSATFNETVKDFVARTVKDPNQLFVKREDLALDSVKQYKVVCPKEQNKIEVIKDQIMELGDIGQTIIFVKTKASAQKVHKALAEMGYDVTSVHGNLTESDRDKIVKEFKECLTQVLIATDVIARGFDQQRVNLVVNYNLPTKYETGEPDYEVYLHRVGRAGRFGRKGAVFNLLLDDGWDKEVMEKIEKYFEANVKEIKSWNSEEEYKSALKEAGLLDEHHHHHH
notes: Recombinant protein from E. coli Rosetta (DE3); also called LOS-His
B4: IPK1 (BiFC fusion protein, FIG. 8B) (enzyme, Arabidopsis, UniProt Q93YN9 1-451, looked up)
chain: MEMILEEKDASDWIYRGEGGANLVLAYAGSSPLFVGKVIRIQKARRNDKAIKNANGVVSVLTSDEQHLWRENNELISSPNKEVLEQRYVKNVIIPLLGPKHVDAGVRVSVSKEFLECVDKKVTKQRPLWRVNAANVDTSHDSALILNDHSLFSQGISSGGDCISVEIKPKCGFLPTSRFIGKENMLKTSVSRFKMHQLLKLEYNEISEESEYDPLDLFSGSKESVLEAIKALYSTPQNNFRVFLNGSLILGGSGESTGRTSPEIGYAFEDALKGFIQSEDGHRTECFLQLVSDAVYGSGVLDRLLEIQKLDKLDIEGAIHSYYDLINQPCPICKEGKPLEAELSLHALPLDESLKIVKEYLIAATAKDCSIMISFQSRNAWDSEPSGDYVSLKPTNQTFDYKVHFIDLSLKPLKRMESYYKLDKKIISFYNRKQKAENTAEQIGNSKPSHS
notes: Expressed in N. benthamiana leaves by agroinfiltration; also called inositol 1,3,4,5,6-pentakisphosphate 2-kinase; not shown: YFP fragment for BiFC

Legend:
[1] = target: B3; test: cell-based or functional assay
YFP^N-Gle1 = target: T1, YFP^N-Gle1; test: BiFC in N. benthamiana leaves (agroinfiltration), confocal microscopy
[2] = target: maltose-binding protein (MBP) (UniProt P0AEX9 27-392 = MBP); test: in vitro pull-down on nickel resin, Coomassie blue staining
Excerpt: Purified recombinant proteins are stained with Coomassie blue (left). A mixture of the proteins is bound to a nickel resin or amylose resin, and the resin-bound proteins are eluted and then stained with Coomassie blue (right);
After extensive washing of the resins, the bound proteins were eluted with 2×SDS sample buffer, and the eluted proteins were visualized by Coomassie blue staining.

[3] = target: T2, LOS4 (BiFC fusion protein, FIG. 8B); test: BiFC (FIG. 8), told again in the discussion

With B1 the “LOS4 ATPase activity with RNA and MBP-Gle1 (2 µM), LOS4-His 1 µM” value [1] was roughly 3 fold and the “LOS4 ATPase activity with RNA, MBP-Gle1 (2 µM) and InsP6 (10 µM)” value [1] was greater than 4 fold.

B2: binds (YFP^N-Gle1).

B3: no binding [2].

B4: binds [3].
